Data from US20050282752A1.

Experiments:
[1] = biological target: biotinylated human IL-1RI (human) (UniProt P14778); assay: IGEN (ECL) competition, inhibition of IL-1 signaling complex formation; details: ligand
[2] = biological target: biotinylated human IL-1RI (human) (UniProt P14778); assay: IGEN (ECL) competition, inhibition of IL-1 signaling complex formation; concentrated stock; details: ligand

Sequence of biotinylated human IL-1RI (human) (P14778 18-336): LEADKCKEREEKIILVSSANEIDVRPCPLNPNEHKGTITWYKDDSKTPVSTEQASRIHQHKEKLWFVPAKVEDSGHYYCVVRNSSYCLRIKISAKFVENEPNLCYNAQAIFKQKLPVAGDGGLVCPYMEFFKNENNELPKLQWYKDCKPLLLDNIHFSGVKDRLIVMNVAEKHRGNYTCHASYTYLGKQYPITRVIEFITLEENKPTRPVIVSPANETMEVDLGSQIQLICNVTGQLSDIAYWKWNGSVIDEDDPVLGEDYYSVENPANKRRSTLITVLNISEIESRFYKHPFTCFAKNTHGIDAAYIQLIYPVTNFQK

EC50 [1]: 0.562 nM | EC50 [2]: 0.873 nM
Substance: IL-1ra K93A mutant protein (from UniProt P18510 26-177)
